Measured values reported in publication doi:10.1101/2022.10.14.512051 (bioRxiv, 2022).

Key:
His-DDB1 (recombinant) = His-DDB1 (recombinant) (human, UniProt Q16531 1-1140); assay: fluorescence polarisation
[1] = target: CRL4A complex (CUL4A, DDB1, RBX1) (human | , UniProt Q13619 1-759; Q16531 1-1140; P62877 1-108); assay: fluorescence polarisation
CRL4A complex (CUL4A, DDB1, RBX1), sequence (Q13619 whole entry, chain 1 of 3): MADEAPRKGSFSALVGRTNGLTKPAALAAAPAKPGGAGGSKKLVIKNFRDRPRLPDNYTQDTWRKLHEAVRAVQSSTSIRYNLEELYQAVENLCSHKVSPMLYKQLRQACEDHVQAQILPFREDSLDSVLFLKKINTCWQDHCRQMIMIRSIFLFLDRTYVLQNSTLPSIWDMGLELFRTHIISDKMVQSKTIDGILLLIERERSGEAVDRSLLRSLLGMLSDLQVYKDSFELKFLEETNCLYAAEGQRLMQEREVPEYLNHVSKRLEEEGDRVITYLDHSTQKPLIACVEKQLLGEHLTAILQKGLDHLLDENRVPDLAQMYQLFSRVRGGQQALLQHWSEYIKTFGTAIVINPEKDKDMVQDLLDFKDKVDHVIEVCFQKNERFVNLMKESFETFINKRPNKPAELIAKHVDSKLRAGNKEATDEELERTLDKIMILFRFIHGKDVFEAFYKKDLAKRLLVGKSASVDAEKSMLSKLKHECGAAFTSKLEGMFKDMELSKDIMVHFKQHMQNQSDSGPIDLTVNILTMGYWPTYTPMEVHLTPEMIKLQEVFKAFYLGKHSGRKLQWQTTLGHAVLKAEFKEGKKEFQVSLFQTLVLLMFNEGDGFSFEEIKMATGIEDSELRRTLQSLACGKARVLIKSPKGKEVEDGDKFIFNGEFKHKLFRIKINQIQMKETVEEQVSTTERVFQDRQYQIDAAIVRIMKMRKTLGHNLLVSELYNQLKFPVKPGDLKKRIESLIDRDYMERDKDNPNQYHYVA
CRL4A complex (CUL4A, DDB1, RBX1), sequence (Q16531 whole entry, chain 2 of 3): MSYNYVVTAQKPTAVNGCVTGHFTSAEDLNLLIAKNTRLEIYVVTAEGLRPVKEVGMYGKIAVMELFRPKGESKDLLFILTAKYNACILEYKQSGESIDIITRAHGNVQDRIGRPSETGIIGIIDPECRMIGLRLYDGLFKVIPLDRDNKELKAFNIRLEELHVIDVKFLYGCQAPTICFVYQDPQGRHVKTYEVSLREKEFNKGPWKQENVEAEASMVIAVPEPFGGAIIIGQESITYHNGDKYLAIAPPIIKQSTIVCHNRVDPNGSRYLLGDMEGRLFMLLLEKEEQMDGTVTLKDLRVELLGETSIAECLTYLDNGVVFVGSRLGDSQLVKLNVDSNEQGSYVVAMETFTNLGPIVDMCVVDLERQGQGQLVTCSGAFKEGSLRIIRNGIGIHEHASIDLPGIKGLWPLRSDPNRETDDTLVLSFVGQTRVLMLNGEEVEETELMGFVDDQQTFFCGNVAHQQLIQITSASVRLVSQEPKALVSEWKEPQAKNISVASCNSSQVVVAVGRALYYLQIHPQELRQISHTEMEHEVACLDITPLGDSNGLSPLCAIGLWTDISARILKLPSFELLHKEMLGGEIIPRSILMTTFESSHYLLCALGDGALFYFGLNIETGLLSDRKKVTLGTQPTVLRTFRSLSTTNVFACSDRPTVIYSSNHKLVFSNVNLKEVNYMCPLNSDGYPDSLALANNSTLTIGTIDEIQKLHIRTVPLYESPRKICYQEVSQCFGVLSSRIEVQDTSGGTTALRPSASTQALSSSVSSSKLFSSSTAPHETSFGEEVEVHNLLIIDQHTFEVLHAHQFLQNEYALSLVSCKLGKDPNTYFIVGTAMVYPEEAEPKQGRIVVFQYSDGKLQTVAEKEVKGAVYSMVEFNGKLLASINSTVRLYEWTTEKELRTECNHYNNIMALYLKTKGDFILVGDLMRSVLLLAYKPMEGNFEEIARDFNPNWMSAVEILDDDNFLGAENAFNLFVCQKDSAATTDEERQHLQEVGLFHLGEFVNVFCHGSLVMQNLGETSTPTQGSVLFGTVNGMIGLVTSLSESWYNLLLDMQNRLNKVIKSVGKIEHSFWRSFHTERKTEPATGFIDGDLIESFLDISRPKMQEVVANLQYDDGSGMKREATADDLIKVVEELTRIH
CRL4A complex (CUL4A, DDB1, RBX1), sequence (P62877 whole entry, chain 3 of 3): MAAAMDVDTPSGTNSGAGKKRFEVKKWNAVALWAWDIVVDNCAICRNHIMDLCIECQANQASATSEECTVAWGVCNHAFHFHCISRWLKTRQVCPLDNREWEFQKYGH

His-DDB1 (recombinant), sequence (Q16531 whole entry): as the sequence (Q16531 whole entry, chain 2 of 3) above

Kd (His-DDB1 (recombinant)) | Kd [1] | Binder
~5 µM | ~13 µM | Alexa-labeled LIS1 (biotinylated StrepII-Avi-LIS1 with Alexa488-coupled streptavidin) (natural protein, human, UniProt P43034 1-410, looked up, biotin on the Avi tag) MVLSQRQRDELNRAIADYLRSNGYEEAYSVFKKEAELDVNEELDKKYAGLLEKKWTSVIRLQKKVMELESKLNEAKEEFTSGGPLGQKRDPKEWIPRPPEKYALSGHRSPVTRVIFHPVFSVMVSASEDATIKVWDYETGDFERTLKGHTDSVQDISFDHSGKLLASCSADMTIKLWDFQGFECIRTMHGHDHNVSSVAIMPNGDHIVSASRDKTIKMWEVQTGYCVKTFTGHREWVRMVRPNQDGTLIASCSNDQTVRVWVVATKECKAELREHEHVVECISWAPESSYSSISEATGSETKKSGKPGPFLLSGSRDKTIKMWDVSTGMCLMTLVGHDNWVRGVLFHSGGKFILSCADDKTLRVWDYKNKRCMKTLNAHEHFVTSLDFHKTAPYVVTGSVDQTVKVWECR
~5 µM | ~13 µM | Alexa-labeled WDR1 (biotinylated StrepII-Avi-WDR1 with Alexa488-coupled streptavidin) (natural protein, human, UniProt O75083 1-606, looked up, biotin on the Avi tag) MPYEIKKVFASLPQVERGVSKIIGGDPKGNNFLYTNGKCVILRNIDNPALADIYTEHAHQVVVAKYAPSGFYIASGDVSGKLRIWDTTQKEHLLKYEYQPFAGKIKDIAWTEDSKRIAVVGEGREKFGAVFLWDSGSSVGEITGHNKVINSVDIKQSRPYRLATGSDDNCAAFFEGPPFKFKFTIGDHSRFVNCVRFSPDGNRFATASADGQIYIYDGKTGEKVCALGGSKAHDGGIYAISWSPDSTHLLSASGDKTSKIWDVSVNSVVSTFPMGSTVLDQQLGCLWQKDHLLSVSLSGYINYLDRNNPSKPLHVIKGHSKSIQCLTVHKNGGKSYIYSGSHDGHINYWDSETGENDSFAGKGHTNQVSRMTVDESGQLISCSMDDTVRYTSLMLRDYSGQGVVKLDVQPKCVAVGPGGYAVVVCIGQIVLLKDQRKCFSIDNPGYEPEVVAVHPGGDTVAIGGVDGNVRLYSILGTTLKDEGKLLEAKGPVTDVAYSHDGAFLAVCDASKVVTVFSVADGYSENNVFYGHHAKIVCLAWSPDNEHFASGGMDMMVYVWTLSDPETRVKIQDAHRLHHVSSLAWLDEHTLVTTSHDASVKEWTITY
